This note sets out measurements from doi:10.1101/2025.06.17.660072.

This data set concerns PSMα3. As to the kind of experiment: EMSA. On the technique in general: In EMSA bound probe runs differently from free probe, usually more slowly.

What is called Kd is the equilibrium constant for the complex coming apart. A high value points to a looser complex.

Regarding Poly (A) RNA, oligoA, the Kd is 94.5 µM. Poly (AU) RNA, oligoA/oligoU duplex had a Kd of 61.8 µM.
